This data set can be described thus: soluble on expression in E. coli; label from the status in PepcDB or PDB records.
With “MGSDKIHHHHHHMDQQTVLPEQDHDKSAIDELDFSCHSSGNFPGILAGLKLSLVVTSYQAHRLFFVRSNGIQIDVNFKNFVRPMGISVTPQQITLGTLNQVWRFRRSDDALALLDDPHADACYVASACHTTGLINIHDIAYGNKGLWVTNSAFSCLATLEPDYSFVPRWKPDFISALAPEDRCHLNGMALLDGEPAYVTTFNQSDTARSWRDGAKDQGTLINIKTGEQIFSNLTMPHSPRCYNGYVYFCESGHGLVRRYDPRTNEVVDVVKLAGFTRGMDFFGPLMFVGLSKTRFSSVAEPAPIAQQLEESQSGIWCINLTDHSVVGFVRFEGNIDQIYDVAVLSGVMYPELLLPDDELSMSVFNFPPLSYASEN”, the “soluble on expression in E. coli” value is reported as “not soluble”.
Under “MNRKRKWQIPPPSEPVTDEYLTSVTIGERKPLNDRIQLAEYDLRWPSMFSVAADKIRSALSEKALLVEHVGSTSVPGLAAKLIIDMLLGVTDSADEKSYVLPLEQQGFVLQAREPGWYEHRFFRLKSGDMEWHLHVFSAECEEIDRMLAFRNWLRVHDDDRQRYENVKRTLAARTWKHMQNYADAKSDIVREILGRAQDDHVVGITSEAVSAAFRFR” stands “not soluble”.
Under “MPVLYKPFQSNLEDKKSGKKLFYPHVVRTGNINSAQLSKEIAAYSSLSPGDVKNTLDNLVTVMAQHLQSSESVSVDGLGTFRMVMSARGRGVETADEVSAAQATLTVRFQPTTTKNLDRTTATRSMVTGAKCARYDKLVSAPGDGGSVDDPNDKPGGGSDGGDDGEAPDPTV” stands “not soluble”; under “MDDGDTADDIMDATYRALCTHGYADLTMQDIADESDKSKAALHYHYDSKHDLLCAFLEYLYDGFVDRIEDPAGETPHERLLSLIDSVLDKPDDGSEEFGTAILEIRAHAPYEPGFRERLTKFDDYLVDELEVILEDGIADGTFKSDLDADETAQFIVTVLTGAATERVTTGRPVKCTRRMLTEYVETHLLDGQQEVTA”, “not soluble”.
“MIREDEVRKLVGEMREPFLQRPLGELDAVKEIKIKPEKRHISVKVALAKTGTAEQMQIQQEIVNVLKGAGAETVGLRFEELPEETVAKFRAPSAEKKTLLNMDNPPVFLAVASGKGGVGKSTVSVNLAISLARLGKKVGLIDADIYGFSVPDMMGITVRPTIEGEKLLPVERFGVKVMSMGFFVEENAPVVWRGPMLGKMLNNFFHEVEWGEVDYIVLDLPPGTGDVALDVHTMLPSCKEIIVSTPHPTAAFVAARAGSMAIKTDHEVVGVIENMAYYESAKTGEREYVFGKGGGDKLAEELNVPLLGRIPLKQPDWDKDQFAPSVYDENHPIGEIYQDIAKKIDAKMSVQVLEHHHHHH”: the “soluble on expression in E. coli” value is reported as “soluble”.
As for “MNKDNSPSESLVNSSASEDKTVKTSMSANNPSINDSSLPERLPAMCGCDSQNREESANSGVQLSDHANESLSKQADDVIYEGGLEDKDSVFRAIIEDDDACEVLDDGIDNCEVEIPVAIECHLCNEMMNLCLRRTRYRGQAREYPAYRCNRKGCQTFRSIRKVFGNCMSDVDNSGDATTRTMIYHPPHKVRKTSPGEFSDDDSKEFVVQRVYIPKIDNRNKDQSVKSLSVTDRMRKANQDRAIVFSEFADQLRRDIVANKRVRIKKHVEEDQQGTLFYISKELNPQEVIELQDVIIKTLISMRKIPPPMTMDDLPLFANCPYSKKAVDAGEFDMSETEERPRPKLPKTIYQNTRTHSDSLTERSRHFTYDELKHSMEANAEGPSTCRIGISRSERNSESLQWIGLKTYEDSTDGFAKSVNSEGERQQGINGQIDDEVFEDESRFKPVASMQDVMRTLSTPSTLRPPVSPLMKSFSSMDSSNFKNPINAHPPMFFSDPHFLINNNQFNSPTPFYALNSYFPSFPMDSSQVYQNATDEHFTPSGASEVVCTEQTPGHHFTYIHPDSGVRLTDPSAFLTSFVPSPITKVPPINFNDETSRSRSASAPSTSVYNTGEFERSHKKYENEEDEKLMDNQNFSDEQPKE”, the entry is “not soluble”.
Under “MLLDKIQNLIIQSDISIFQSMKKMDEEKVKLLFVFRGDCFVGILTIGDIQRAIIKQNDTSMQINNILDQNKVFAYKGESLEIIKNKMIHLRAECMPILDSKGELVDVLFWKDLFIDEVRVDDRKIDLPVVIMAGGKGTRLKPLTNVIPKPLIPIGDKTILEAILDQFESIGCSKFYMSVNYKYDILKFYLAQLDHKYDIRFFKEDKPLGTIGSVSLLKDKISTPFFVSNCDIIIDQDYRDVYDYHINNSNDLTIVTAVKRTRIPYGVIETIENGLMTELIEKPEFTYMINSGVYILQPELINEIPENELFHITHLMEKVKSRGGKIGCFPVSEKSWTDIGEWNEYLKLLGILEHHHHHH” stands “not soluble”.
As for “MHHHHHHLESSGDFSLLSSPINREKNGTEIVKFSIHPYKGTVIRLGEEILPFKVLEMDKNIALVEMAIPVYKDEKEIELKLSSPGFQNSSYRIRKPEELNEKLIALDKEGITHRFISRFKTGFQPKSVRFIDNTRLAIPLLEDEGMDVLDINSGQTVRLSPPEKYKKKLGFVETISIPEHNELWVSQMQANAVHVFDLKTLAYKATVDLTGKWSKILLYDPIRDLVYCSNWISEDISVIDRKTKLEIRKTDKIGLPRGLLLSKDGKELYIAQFSASNQESGGGRLGIYSMDKEKLIDTIGPPGNKRHIVSGNTENKIYVSDMCCSKIEVYDLKEKKVQKSIPVFDKPNTIALSPDGKYLYVSCRGPNHPTEGYLKKGLVLGKVYVIDTTTDTVKEFWEAGNQPTGLDVSPDNRYLVISDFLDHQIRVYRRDGF”, the entry is “soluble”; as for “VGDLYYHVGVNATFIKNELTEVNGSRDEWQGFNPHAKGTITYAKTGHSIGYFNLIKTDGVFQSQQEIDAYVDKNGNKIQPNAQPGDLRFVDYNGDGKIDNNDRQDVGSAFPKVNLGVSLGAEWKGLDLNMFFDGNFGNKIYNAQYYSTVYNESTGNQYAERMNSWTENNHSDIPRCLFGTSDPNGTNWGYTDRWLENGSFLRLKTLELGYTLPKVWVSKAGLQNVRVYTAMENLFTITDYKGYTPDLGMVDADGAGTSGGSGVMTRGCDDGRYPMARTITFGLQVNF”, “not soluble”.
Consider “GAGTSTPTTGNQNMSGNSGSIVQNFYMQQYQNSIDADLGDNVISPEGQGSNTSSSTSSSQSSGLGGWFSSLLNLGTKLLADKKTEETTNIEDRIETTVVGVTIINSQGSVGTTYCYSKPDGRPPSTVSDPVTRLGPTLSRHYTFKVGEWPHSQSHGHAWICPLPGDKLKKMGSFHEVVKAHHLVKNGWDVVVQVNASFAHSGALCVAAVPEYEHTHEKALKWSELEEPAYTYQQLSVFPHQLLNLRTNSSVHLVMPYIGPGPTTNSALHNPWTIVVLILSELTGPGQTVPVTMSVAPIDAMVNGPLPNPEAPIRVVSVPESDSFMSSVPDNSTPLYPKVVVPPRQVPGRFTNFIDVAKQTYSFCSISGKPYFEVTNTSGDEPLFQMDVSLSAAELHGTYVASLSSFFAQYRGSLNFNFIFTGAAATKAKFLVAFVPPHSAAPKTRDEAMACIHAVWDVGLNSAFSFNVPYSSPADFMAVYSAEATVVNVSGWLQVYALTALTSTDIAVNSKGRVLVAVSAGPDFSLRHPVDLPDKQVTNVGEDGEPGETEPRYALSPVDMHVHTDVSFLLDRFFDVETLELSNLTGSPNTHVLNPFGSTAQLAWARLLNTCTYFFSDLELSIQFKFTTTPSSVGEGFVWVKWFPVGAPTKTTDAWQLEGGGNSVRIQQLAVAGMSPTVVFKIAGSRSQACGFSVPYTSMWRVVPVFYNGWGAPTKEKATYNWLPGAHFGSILLTSDAHDKGGCYLRYRFPRASMYCPRPIAPAFTRPADKTRHKFPTNINKQCTNYSLLKLAGDVESNPG”, for which the “soluble on expression in E. coli” value is reported as “soluble”.
As for “MDPTLYCVVAVDTKLGIGKNRCLPWPALRGDMRRFRQLTTDCAPGKQNMVVMGRRTWLSIPAGCRPLAGRINVVLSRTLETPPPGAHFLASSLDAALGLARSPELAQQIDKVWVIGGGDLYREALTGPWPVRLFLTRVLHDFACDVFLSHDSLAAYARVNPKPGEQERVFQERGIFYMFETYIKVTQSSDTALPDLERPRPATPPFSETS”, the entry is “soluble”; as for “MKEVLKLADEKFVMSFSGGKDSILALNRMLKKGYKPVALLTTISEEHGKSWTHNLEYNMLKQVSSNIGLPLLVAECGVEGYEESFERALIKAKNMGATICAYGDIDIESHRKWDTDRCEAVGMKVDLPLWQESREDLVYEFIDSGFCSVVTKVNLKHLGEEFLGKKLTRELVEKIKNAGADPCGEHGEYHTFVVDGPIFKKPVEYEVKGTLIKDGYGYLEIK”, “not soluble”.
As for “MGSDKIHHHHHHMFMPEAVNWNRPIKVGVSSCLLGEKVRYDGGHKHDHYITDVLGKFFTFVPVCPEVGCGMPVPREAMRLEGDPEHPRLVTNKTRIDKTEQMRAFCKQKVTELADEELCGFIFKKDSPSSGLFRVKVHNEGMPTRSGSGLFAAAVVKHFPLLPAEEEGRLNDAAIRENFIERIFCYRRWKDFLLDSPDLGHLVTFHARHKLLILAHSTSIYREMGSLVAHGKGMSWPELAQSYEALFMKALALHATVKKNTNVLTHIMGYFKRDLSPAEKEELLGVIKEYHDRLVPLIVPLTLLKHYVGKYGQSYLQQQYYLSPHPAELMLRNHV”, the entry is “not soluble”; as for “MGSDKIHHHHHHGTSGTSKSSKTQLTGQSSDGDYEGVIKSGHYQTSKSRGVTNSQDSGNTYNVKSFENGMLGVSKKVFSTKSYVFQEGQYLSSSTVQNWLDRKTKSNPTGLNPKSNGSTSPTKRNPVYIQALEEQDYMTQKNNKLSLGGVTIGIAVNSVDYYKKTQYGATYETKITKAEGEAYAKKAANTVLKRLRKKSALKNVPIVIAIYRQASNDSLVGGNFIAYSENKGSATTVSKWNALSEKNYVFPIESGSSSPNSNDETSFTNFKSQVENFFPNLSGVTAQAHYSGNTLTGMHVNITTQFYSQTEIISFTQYLQTAAQKYLPSSVPIDITVSSTDSVQSFLSRSSGAKKFTSHVFNSY”, “not soluble”; as for “HGSMTDTYLHETLVFDNKLSYIDNQRDTDGPAILLLPGWCHDHRVYKYLIQELDADFRVIVPNWRGHGLSPSEVPDFGYQEQVKDALEILDQLGVETFLPVSHSHGGWVLVELLEQAGPERAPRGIIMDWLMWAPKPDFAKSLTLLKDPERWREGTHGLFDVWLDGHDEKRVRHHLLEEMADYGYDCWGRSGRVIEDAYGRNGSPMQMMANLTKTRPIRHIFSQPTEPEYEKINSDFAEQHPWFSYAKLGGPTHFPAIDVPDRAAVHIREFATAIRQGQ”, “soluble”.
“MEERGDSEPTPGCSGLGPGGVRGFGDGGGAPSWAPEDAWMGTHPKYLEMMELDIGDATQVYVAFLVYLDLMESKSWHEVNCVGLPELQLICLVGTEIEGEGLQTVVPTPITASLSHNRIREILKASRKLQGDPDLPMSFTLAIVESDSTIVYYKLTDGFMLPDPQNISLRR”: the “soluble on expression in E. coli” value is “soluble”.
As for “MDINKLKLTPDSSIKEALKIVGQERVRLGIIVDKKDKFLGVISDSNIRKALISGKTLKDSIKDIYTKNPITIKENTSKEQLLKISAKTDIYDFPVLDEKGQILSIKSISSLLKANPNSIIIMAGGLGSRLKELTKDTPKPMLKVGKKPILESIIQRLKNQNFENFIFCVNYKKQIIEDYFQKGQKFGVKISYIKERKKLGTAGALSLIKQEFKESFIVMNADILTELDFNALLKAHKKSKALMSVCVREFEQQIPYGVITQKQGFIENIEEKPTQKFLVSAGIYVLENEILNLIAKNEYLDMPELIKLVLQKGKVNTYIINDYWIDIGRPDEFLKANEDFKLEHHHHHH”, the entry is “soluble”.

For the origin of these results see the DeepSol protein solubility set.
